{"source": "paper PMC3458246", "about": "(Scientific Reports, 2012)", "proteins": {"B1": {"name": "Death Associated Protein Kinase 1 (DAPK1) K42W, HA tagged, kinase dead (enzyme, human, UniProt P53355 1-1430, looked up)", "chain": "MTVFRQENVDDYYDTGEELGSGQFAVVKKCREKSTGLQYAAWFIKKRRTKSSRRGVSREDIEREVSILKEIQHPNVITLHEVYENKTDVILILELVAGGELFDFLAEKESLTEEEATEFLKQILNGVYYLHSLQIAHFDLKPENIMLLDRNVPKPRIKIIDFGLAHKIDFGNEFKNIFGTPEFVAPEIVNYEPLGLEADMWSIGVITYILLSGASPFLGDTKQETLANVSAVNYEFEDEYFSNTSALAKDFIRRLLVKDPKKRMTIQDSLQHPWIKPKDTQQALSRKASAVNMEKFKKFAARKKWKQSVRLISLCQRLSRSFLSRSNMSVARSDDTLDEEDSFVMKAIIHAINDDNVPGLQHLLGSLSNYDVNQPNKHGTPPLLIAAGCGNIQILQLLIKRGSRIDVQDKGGSNAVYWAARHGHVDTLKFLSENKCPLDVKDKSGEMALHVAARYGHADVAQLLCSFGSNPNIQDKEEETPLHCAAWHGYYSVAKALCEAGCNVNIKNREGETPLLTASARGYHDIVECLAEHGADLNACDKDGHIALHLAVRRCQMEVIKTLLSQGCFVDYQDRHGNTPLHVACKDGNMPIVVALCEANCNLDISNKYGRTPLHLAANNGILDVVRYLCLMGASVEALTTDGKTAEDLARSEQHEHVAGLLARLRKDTHRGLFIQQLRPTQNLQPRIKLKLFGHSGSGKTTLVESLKCGLLRSFFRRRRPRLSSTNSSRFPPSPLASKPTVSVSINNLYPGCENVSVRSRSMMFEPGLTKGMLEVFVAPTHHPHCSADDQSTKAIDIQNAYLNGVGDFSVWEFSGNPVYFCCYDYFAANDPTSIHVVVFSLEEPYEIQLNQVIFWLSFLKSLVPVEEPIAFGGKLKNPLQVVLVATHADIMNVPRPAGGEFGYDKDTSLLKEIRNRFGNDLHISNKLFVLDAGASGSKDMKVLRNHLQEIRSQIVSVCPPMTHLCEKIISTLPSWRKLNGPNQLMSLQQFVYDVQDQLNPLASEEDLRRIAQQLHSTGEINIMQSETVQDVLLLDPRWLCTNVLGKLLSVETPRALHHYRGRYTVEDIQRLVPDSDVEELLQILDAMDICARDLSSGTMVDVPALIKTDNLHRSWADEEDEVMVYGGVRIVPVEHLTPFPCGIFHKVQVNLCRWIHQQSTEGDADIRLWVNGCKLANRGAELLVLLVNHGQGIEVQVRGLETEKIKCCLLLDSVCSTIENVMATTLPGLLTVKHYLSPQQLREHHEPVMIYQPRDFFRAQTLKETSLTNTMGGYKESFSSIMCFGCHDVYSQASLGMDIHASDLNLLTRRKLSRLLDPPDPLGKDWCLLAMNLGLPDLVAKYNTSNGAPKDFLPSPLHALLREWTTYPESTVGTLMSKLRELGRRDAADFLLKASSVFKINLDGNGQEAYASSCNSGTSYNSISSVVSR"}}, "molecular_target": "the molecule itself", "assay": "SEC"}
{"protein": "B1", "values": [{"measurement": "stoichiometry N", "result": 2}]}
